Test results from US20060193821, “Aptamers to the human IL-12 cytokine family and their use as autoimmune disease therapeutics” (published 2006).

How the values were obtained:
[1] = molecular target: T1, IL-23 (human, p19/p40 heterodimer) (Homo sapiens, UniProt Q9NPF7;P29460 SEQ:20-189,SEQ:23-328); test: filter; 1X PBS, tRNA, ssDNA, BSA, 30 min RT; conditions: tags: R&D Systems, carrier free; label: 32P
[2] = molecular target: T1, IL-23 (human, p19/p40 heterodimer); test: filter; 1X SHMCK, 1 mM Mg, 1 mM Ca, 0.1 mg/mL tRNA, RT; conditions: tags: R&D Systems, carrier free; label: 5'-32P
Experimental: (§1) Monitoring Progress of rRfY Selection. Dot blot binding assays were performed throughout the selections to monitor the protein binding affinity of the pools. Trace ³²P-labeled RNA was combined with a dilution series of h-IL-23 and incubated at room temperature for 30 minutes in 1×SHMCK (20 mM Hepes, 120 mM NaCl, 5 mM KCl, 1 mM MgCl₂, 1 mM CaCl₂, pH 7.4) plus 0.1 mg/mL tRNA for a final volume of 20 μL. The binding reactions were analyzed by nitrocellulose filtration using a Minifold I dot-blot, 96-well vacuum filtration manifold (Schleicher & Schuell, Keene, N.H.). A three-layer filtration medium was used, consisting (from top to bottom) of Protran nitrocellulose (Schleicher & Schuell), Hybond-P nylon (Amersham Biosciences) and GB002 gel blot paper (Schleicher & Schuell). RNA that is bound to protein is captured on the nitrocellulose filter, whereas the non-protein bound RNA is captured on the nylon filter. The gel blot paper was included simply as a supporting medium for the other filters. Following filtration, the filter layers were separated, dried and exposed on a phosphor screen (Amersham Biosciences, Piscataway, N.J.) and quantified using a Storm 860 Phosphorimager® blot imaging system (Amersham Biosciences).
(§2) When a significant positive ratio of binding of RNA in the presence of h-IL-23 versus in the absence of h-IL-23 was seen, the pools were cloned using a TOPO TA cloning kit (Invitrogen, Carlsbad, Calif.) according to the manufacturer's instructions. For the h-IL-23 and X-IL-23 selections, the Round 8 pool templates were cloned, and 32 individual clones from each selections were assayed in a 1-point dot blot screen (+/−75 nM h-IL-23, as well as a separate screen at +/−75 nM h-IL-12). For the PN-IL-23 selection, the Round 10 pool was cloned and sequenced, and 8 unique clones were assayed for protein binding in a 1-point dot blot screen (+/−200 nM h-IL-23 and a separate screen at +/−200 nM h-IL-12). Subsequently, the Round 10 PN-IL-23 pool was re-cloned for further sequences, as well as the R12 PN-IL-23 pool, and the clones were assayed for protein binding in a 1 point do blot screen (+/−100 nM h-IL-23 or +/−200 nM h-IL-12).

[3] = molecular target: T2, IL-12 (human, p35/p40 heterodimer) (Homo sapiens, UniProt P29459;P29460 SEQ:57-253,SEQ:23-328); test: filter; no significant binding; 1X SHMCK, 0.1 mg/mL tRNA; conditions: label: 5'-32P
Experimental: as §1, §2

[4] = molecular target: T1, IL-23 (human, p19/p40 heterodimer); test: filter; no binding; conditions: tags: R&D Systems, carrier free; label: 5'-32P
From the text: The fraction aptamer bound vs. [IL-23] was used to calculate the KD by fitting the following equation to the data: Fraction aptamer bound=amplitude*([IL-23]/(KD+[IL-23]))+background binding.
Table 25 below summarizes the minimized sequences and the parent clone from which they were derived, and Table 26 summarizes the binding characterization from direct binding assays (+/−tRNA) and competition binding assays for the minimized constructs tested.

[5] = molecular target: T2, IL-12 (human, p35/p40 heterodimer); test: filter; 1X PBS, 0.1 mg/mL BSA, 30 min RT; conditions: label: 32P
Experimental: (§3) rRfY mIL-23 Protein Binding Analysis: Dot blot binding assays were performed throughout the selections to monitor the protein binding affinity of the pools as previously described. When a significant level of binding of RNA in the presence of mIL-23 was observed, the pools were cloned using a TOPO TA cloning kit (Invitrogen, Carlsbad, Calif.) according to the manufacturer's instructions. For both mIL-23 selections, the Round 7 pool templates were cloned, and 16 individual clones from each selection were assayed using an 8-point mIL-23 titration. Seven of the 32 total clones screened had specific binding curves and are listed below in Table 16. […] Clones with high affinity to mIL-23 were subsequently screened for protein binding against mouse IL-12, human IL-23 and human IL-12 in the same manner.

[6] = molecular target: T3, IL-12 (mouse, p35/p40 heterodimer) (Mus musculus, UniProt P43431;P43432 SEQ:23-215,SEQ:23-335); test: filter; 1X PBS, 0.1 mg/mL BSA, 30 min RT; conditions: label: 32P
T3 sequence 1: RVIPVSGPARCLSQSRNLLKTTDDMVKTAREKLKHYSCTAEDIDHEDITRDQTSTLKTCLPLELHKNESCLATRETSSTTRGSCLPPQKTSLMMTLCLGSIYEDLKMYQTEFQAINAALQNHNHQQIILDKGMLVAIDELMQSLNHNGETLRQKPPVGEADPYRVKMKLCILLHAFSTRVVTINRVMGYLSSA
T3 sequence 2: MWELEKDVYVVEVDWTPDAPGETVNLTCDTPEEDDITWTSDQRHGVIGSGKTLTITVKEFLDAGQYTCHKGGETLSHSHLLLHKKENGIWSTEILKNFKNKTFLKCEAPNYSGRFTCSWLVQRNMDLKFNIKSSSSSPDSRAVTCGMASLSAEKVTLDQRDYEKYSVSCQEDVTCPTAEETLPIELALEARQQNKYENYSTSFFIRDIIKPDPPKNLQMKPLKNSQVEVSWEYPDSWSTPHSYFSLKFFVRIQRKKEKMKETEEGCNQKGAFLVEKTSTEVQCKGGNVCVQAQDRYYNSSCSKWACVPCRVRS
Experimental: as §3

[7] = molecular target: T4, IL-23 (mouse, p19/p40 heterodimer) (Mus musculus, UniProt Q9EQ14;P43432 SEQ:22-196,SEQ:23-335); test: filter; 1X PBS, 0.1 mg/mL BSA, 30 min RT; conditions: tags: isolated in-house; label: 32P
T4 sequence 1: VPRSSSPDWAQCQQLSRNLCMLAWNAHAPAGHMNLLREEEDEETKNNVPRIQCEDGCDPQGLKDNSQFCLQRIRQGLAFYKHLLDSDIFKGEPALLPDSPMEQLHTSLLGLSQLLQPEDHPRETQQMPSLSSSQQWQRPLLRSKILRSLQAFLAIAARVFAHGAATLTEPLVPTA
T4 sequence 2: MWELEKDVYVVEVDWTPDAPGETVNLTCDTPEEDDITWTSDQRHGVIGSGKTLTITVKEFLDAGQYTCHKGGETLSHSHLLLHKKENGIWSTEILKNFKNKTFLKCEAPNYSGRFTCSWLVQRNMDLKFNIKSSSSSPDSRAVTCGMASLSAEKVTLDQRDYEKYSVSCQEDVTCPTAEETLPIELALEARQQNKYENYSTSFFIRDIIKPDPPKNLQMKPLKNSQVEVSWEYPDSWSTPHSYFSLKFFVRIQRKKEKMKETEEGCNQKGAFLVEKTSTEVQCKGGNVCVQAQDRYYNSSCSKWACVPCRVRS
Experimental: as §3

[8] = molecular target: T1, IL-23 (human, p19/p40 heterodimer); test: filter; 1X PBS, 0.1 mg/mL BSA, 30 min RT; conditions: tags: R&D Systems, carrier free; label: 32P
Experimental: as §3

[9] = molecular target: T4, IL-23 (mouse, p19/p40 heterodimer); test: cell_activity; TransAM STAT3; conditions: tags: isolated in-house
Experimental: In summary, the cell-based assay was conducted by isolating the peripheral blood mononuclear cells (PBMCs) from whole blood using a Histopaque gradient (Sigma, St. Louis, Mo.). The PBMCs were cultured for 3 to 5 days at 37° C./5% CO₂ in Peripheral Blood Medium (Sigma) which contains PHA, supplemented with IL-2 (100 units/mL) (R&D Systems, Minneapolis, Minn.), to generate PHA Blasts. To test IL-23 aptamers, the PHA Blasts were washed twice with 1×PBS, then serum starved for four hours in RPMI, 0.20% FBS. After serum starvation, approximately 2 million cells were aliquotted into appropriately labeled eppendorf tubes. hIL-23 at a final constant concentration of 3 ng/mL (R&D Systems, Minneapolis, Minn.) was combined with a dilution series of various IL-23 aptamers as described in Example 1, and the cytokine/aptamer mixture was added to the aliquotted cells in a final volume of 100 μl and incubated at 37° C. for 10-12 minutes. The incubation reaction was stopped by adding 1 mL of ice-cold PBS with 1.5 mM Na₃VO₄. Cell lysates were made using the lysis buffer provided by the TransAM™ STAT 3 assay following the manufacturer's instructions. FIG. 20 depicts a flow summary of the protocol used for the cell based assay.
The protocol used was identical to that previously described except mouse IL-23 was used to induce STAT 3 activation in PHA Blasts at a concentration of 30 ng/mL, instead of using human IL-23 at a concentration of 3 ng/mL.

T1 sequence (Q9NPF7 20-189, chain 1 of 2): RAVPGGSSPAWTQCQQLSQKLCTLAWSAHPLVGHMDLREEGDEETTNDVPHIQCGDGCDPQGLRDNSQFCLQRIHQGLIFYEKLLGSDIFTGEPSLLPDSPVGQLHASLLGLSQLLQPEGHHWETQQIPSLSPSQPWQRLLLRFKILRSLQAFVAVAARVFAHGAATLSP
T1 sequence (P29460 23-328, chain 2 of 2): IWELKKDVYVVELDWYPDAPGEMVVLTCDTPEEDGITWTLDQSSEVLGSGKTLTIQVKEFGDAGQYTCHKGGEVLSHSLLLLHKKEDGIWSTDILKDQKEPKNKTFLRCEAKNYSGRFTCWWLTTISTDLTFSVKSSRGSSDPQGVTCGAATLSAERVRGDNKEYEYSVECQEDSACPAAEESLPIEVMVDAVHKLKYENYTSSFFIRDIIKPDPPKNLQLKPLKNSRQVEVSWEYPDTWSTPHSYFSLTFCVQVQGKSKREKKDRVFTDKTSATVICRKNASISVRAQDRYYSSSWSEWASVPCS
T2 sequence (P29459 23-219, chain 1 of 2): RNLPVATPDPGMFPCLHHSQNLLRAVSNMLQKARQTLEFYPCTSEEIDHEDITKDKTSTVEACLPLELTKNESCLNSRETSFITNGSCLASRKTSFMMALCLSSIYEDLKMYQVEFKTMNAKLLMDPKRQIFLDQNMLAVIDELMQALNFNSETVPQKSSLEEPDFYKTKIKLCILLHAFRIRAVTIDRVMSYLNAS
T2 sequence (P29460 23-328, chain 2 of 2): as the sequence (P29460 23-328, chain 2 of 2) above

B1: dRmY clone SEQ 95 (mixed)
RNA: GGGAGAGGAGAGAACGUUCUACGGGCUACGGGGAUGGAGGGUGGGUCCCAGACGCUGUCGAUCGAUCGAUCGAUG
modifications: 2'-deoxy A and G, 2'-OMe C and U (dRmY)
Kd [1]: 433 nM

B2: AMX86-D5 (ssRNA)
RNA: GGGAAAAGCGAAUCAUACACAAGAGAGGUAUGUGGUUUUGCGGAGCAACUCGUGUCAGCGGUCAGCUCCGCCAGAGACCAACCGAGAA
modifications: 2'-F all C and U (rRfY)
Kd [2]: 27.4 nM
binding result [3]: no binding

B3: AMX86-D6 (ssRNA)
RNA: GGGAAAAGCGAAUCAUACACAAGAUUAGGCGUCGUGACAAUAACUGGUCCACGAGCAUGUCAGUGCUCCGCCAGAGACCAACCGAGAA
modifications: 2'-F all C and U (rRfY)
Kd [2]: 25 nM
binding result [3]: no binding

B4: AMX84-A10 (ssRNA)
RNA: GGGAAAAGCGAAUCAUACACAAGAAGUUUUUUGUGCUCUGAGUACUCAGCGUCCGUAAGGGAUAUGCUCCGCCAGAGACCAACCGAGAA
modifications: 2'-F all C and U (rRfY)
Kd [2]: 22.3 nM
binding result [3]: no binding

B5: AMX84-B10 (ssRNA)
RNA: GGGAAAAGCGAAUCAUACACAAGAAGUGCUUCAUGCGGCAAACUGCAUGACGUCGAAUAGAUAUGCUCCGCCAGAGACCAACCGAGAA
modifications: 2'-F all C and U (rRfY)
Kd [2]: 21.8 nM
binding result [3]: no binding

B6: AMX84-F11 (ssRNA)
RNA: GGGAAAAGCGAAUCAUACACAAGAUGUGCUUGAGUUAAAUCUCAUCGUCCCCGUUUGGGGAUAUGCUCCGCCAGAGACCAACCGAGAA
modifications: 2'-F all C and U (rRfY)
Kd [2]: 16.6 nM
binding result [3]: no binding

GGCAAGGUAAUUGGGAAGUGUGGGCUGGG (mixed, 2'-deoxy A and G, 2'-OMe C and U (dRmY)) [ARC894]
binding result [4]: no binding

B7: ARC1629 (ssRNA)
RNA: GGAGCGCACUCAGCCACCGUAAUUCACAAGGUCCCUGAGUGCAGGGUUGUAUGUUUGUUUCGACCUCUCUGCUAGC
modifications: 2'-F all C and U (rRfY)
Kd [5]: 75 nM
Kd [6]: 103 nM
Kd [7]: 34 nM
Kd [8]: 31 nM

B8: ARC1631 (ssRNA)
RNA: GGAGCGCACUCAGCCACGCCUACAAUUCACUGUGAUAUAUCGAAUUAUAGCCCUGGUUUCGACCUCUCUGCUAGC
modifications: 2'-F all C and U (rRfY)
Kd [5]: 69 nM
Kd [6]: 72 nM
Kd [7]: 33 nM
Kd [8]: 39 nM

B9: dRmY clone SEQ 93 (mixed)
RNA: GGGAGAGGAGAGAACGUUCUACGUAACGGGGUGGGAGGGGCGAACAACUUGACGCUGUCGAUCGAUCGAUCGAUG
modifications: 2'-deoxy A and G, 2'-OMe C and U (dRmY)
Kd [1]: 186 nM

B10: dRmY clone SEQ 96 (mixed)
RNA: GGGAGAGGAGAGAACGUUCUACACGGGGUGGGAGGGGCGAGUCGCAUGGAUGCGCUGUCGAUCGAUCGAUCGAUG
modifications: 2'-deoxy A and G, 2'-OMe C and U (dRmY)
Kd [1]: 210 nM

B11: ARC1634 (ssRNA)
RNA: GGAGCGCACUCAGCCACCUUGGGCUUAAUACCUAUCGGAUGUGCGCCUAGCACGGAAUUUCGACCUCUCUGCUAGC
modifications: 2'-F C,U
IC50 [9]: 9 nM

B12: ARC1632 (ssRNA)
RNA: GGAGCGCACUCAGCCACCGGCUUAAUAUCCAAUAGGAACGUUCGCUCUGAGCAGGCGUUUCGACCUCUCUGCUAGC
modifications: 2'-F C,U
IC50 [9]: 18 nM

B13: ARC1633 (ssRNA)
RNA: GGAGCGCACUCAGCCACAGCUCGGUGGCUUAAUAUCUAUGUGAACGUGCGCAACAGCUUUCGACCUCUCUGCUAGC
modifications: 2'-F C,U
IC50 [9]: 31 nM

B14: ARC1628 (ssRNA)
RNA: GGAGCGCACUCAGCCACAGGUGGCUUAAUACUGUAAAGACGUGCGCGCAGAGGGAUUUUCGACCUCUCUGCUAGC
modifications: 2'-F C,U
IC50 [9]: 37 nM

GGGCACUCAGCCACAGCUCGGUGGCUUAAUAUCUAUGUGAACGUGCCC (ssRNA, 2'-F C,U) [ARC1633 minimer]
IC50 [9]: 7 nM

GGGCACUCAGCCACAGGUGGCUUAAUACUGUAAAGACGUGCCC (ssRNA, 2'-F C,U) [ARC1739 (ARC1628 minimer)]
IC50 [9]: 18 nM

GGGCACUCAGCCACCUUGGGCUUAAUACCUAUCGGAUGUGCCC (ssRNA, 2'-F C,U) [ARC1634 minimer]
IC50 [9]: 26 nM
